Measurements as given in patent publication US9593156B2 (priority 2012, dated 2017).
Square brackets hold non-standard residues; d marks the D form. Primed or numbered codes have the meaning given here. Ends that are not written are not given here. PEG4′ = PEG spacer of 4 units in the linker; PEG8′ = PEG spacer of 8 units in the linker

How the values were obtained:
[1] = blood glucose lowering in mice
[2] = target: T1, type A insulin receptor (IR-A) (Homo sapiens, UniProt P06213); assay: Receptor kinase activity (phosphorylation) assay, type A insulin receptor; type: cell-based
T1 construct: expressed in transfected cells; host or cells: HEK293

[3] = target: T2, type B insulin receptor (IR-B) (Homo sapiens, UniProt P06213); assay: Receptor kinase activity (phosphorylation) assay, type B insulin receptor; type: cell-based; details: Table 17
T2 construct: expressed in transfected cells; host or cells: HEK293

C8-PEG20K B^1(H5,Y16,L17)25-PEG8-K-PEG4-A^1(N18,N21) (GPEHLCGAELVDALYLVCGDRGFY[PEG8′]K(PEG 20 kDa)[PEG4′]GIVDECCFRSCDLRRLENYCN; ends and bridges not checked) [#38]
duration of action [1]: 24 h
% Insulin Activity IR-A ([2]; Table 12): 14.8%
Phosphorylation (EC50) % IR-A ([2]; Table 17): 14.8%
agonist character at the insulin receptor (type A) ([2]; result in words): full agonist
Phosphorylation (EC50) % IR-B [3]: 2.0%
